Results as given in the Human Domainome abundance scans (Beltran et al. 2025).

B1: Retinoic acid receptor beta, residues 85 to 161; numbered along this chain, P10826 (parent)
chain: YKPCFVCQDKSSGYHYGVSACEGCKGFFRRSIQKNMIYTCHRDKNCVINKVTRNRCQYCRLQKCFEVGMSKESVRND

Variants of: B1
Assay: abundance fitness (aPCA) (normalised: wild type 0, dead -1); higher = more abundant; growth selection in yeast, the domain comes from the species named
Conditions: Homo sapiens

Abundance fitness of substitutions, site by site:
F27: Y -0.57 | Q -0.97 | S -0.773 | P -0.888 | E -0.822 | C -0.703 | I -0.724 | L -0.886 | M -0.454 | G -0.715 | A -0.748 | D -0.698
A20: F -0.077 | S -0.07 | K -1.08 | I 0.055 | L -0.112 | E -0.66 | V -0.07 | G -0.614 | C 0.064 | W -0.672 | N -0.491 | T -0.065 | Q -0.355 | R -0.785 | P -0.724 | M -0.228 | Y -0.594
I37: Y -0.345 | L -0.053 | G -0.152 | P -0.118 | C -0.204 | R -0.009 | S -0.085 | Q 0.1 | V 0.032 | D 0.048 | N 0.043 | K 0.13 | W -0.119 | T -0.098 | E 0.046 | H -0.161
S31: R -0.559 | W -0.09 | G -0.774 | P -0.611 | E -0.505 | I -0.413 | N -0.508 | Y -0.51 | T 0.148 | M -0.486 | A -0.121 | V -0.341 | C -0.12 | L -0.6
Y38: M -0.466 | A -0.59 | C -0.899 | G -0.523 | Q -0.739 | W -0.282 | N -0.28 | S -0.417 | D -0.997 | P -0.26 | T -0.173 | F -0.187 | H -0.414 | R -0.499 | E -0.472
K25: Y -0.047 | W 0.008 | I 0.094 | H -0.223 | N 0.133 | E 0.036 | R -0.069 | Q 0.122 | V 0.183 | G -0.017 | A 0.205 | S 0.099 | D 0.031 | L 0.028 | T 0.048 | C 0.02 | F 0.133
I32: Y -0.056 | F -0.633 | V 0.055 | Q -0.261 | C -0.176 | S -0.487 | N -0.059 | L -0.08 | G -0.521 | R -0.648 | A -0.156 | P -1.09 | K -0.45 | M -0.105 | W -0.432 | D -0.312
E22: A -0.209 | M -0.224 | G -0.325 | S -0.239 | V -0.203 | W -0.368 | P -0.324 | R -0.663 | L -0.186 | T -0.126 | N -0.317 | Q -0.316 | D -0.025 | K -0.205 | I -0.267
N35: H -0.373 | I -0.684 | W -0.45 | P -0.312 | L -0.235 | Q 0.087 | V -0.184 | T 0.039 | D 0.128 | C 0.024 | E 0.159 | A 0.037 | R -0.018 | K 0.186 | M -0.149 | S 0.035 | G 0.077 | F -0.215
F28: W -0.123 | T -0.604 | N -0.847 | M -0.47 | K -0.9 | L -0.588 | Q -0.807 | P -1.06 | E -0.983 | Y -0.439 | H -0.338 | A -0.534 | V -0.688 | C -0.895 | I -0.453 | G -0.82
Q33: V 0.045 | N 0.066 | L 0.078 | A 0.105 | G -0.044 | Y -0.328 | I 0.028 | S -0.014 | T -0.15 | D 0.016 | C -0.225
